The source of these data is article PMC5067699.

Broadly, the Kd is a measure of binding affinity in units of concentration. A higher Kd goes with a looser complex.

Assay [1] deals with Peptide-7 (tau 195-214, pS199/pS202). Put plainly: SPR. Background: In SPR one partner is held on a chip, and binding of the other changes the refractive index at the surface.
The target of assay [2] is paired-helical filament tau (PHF-tau) from AD brain (human (endogenous in AD patient cortex)) (UniProt P10636). Put plainly: SPR.
Sequence of paired-helical filament tau (PHF-tau) from AD brain (human (endogenous in AD patient cortex)) (P10636 whole entry): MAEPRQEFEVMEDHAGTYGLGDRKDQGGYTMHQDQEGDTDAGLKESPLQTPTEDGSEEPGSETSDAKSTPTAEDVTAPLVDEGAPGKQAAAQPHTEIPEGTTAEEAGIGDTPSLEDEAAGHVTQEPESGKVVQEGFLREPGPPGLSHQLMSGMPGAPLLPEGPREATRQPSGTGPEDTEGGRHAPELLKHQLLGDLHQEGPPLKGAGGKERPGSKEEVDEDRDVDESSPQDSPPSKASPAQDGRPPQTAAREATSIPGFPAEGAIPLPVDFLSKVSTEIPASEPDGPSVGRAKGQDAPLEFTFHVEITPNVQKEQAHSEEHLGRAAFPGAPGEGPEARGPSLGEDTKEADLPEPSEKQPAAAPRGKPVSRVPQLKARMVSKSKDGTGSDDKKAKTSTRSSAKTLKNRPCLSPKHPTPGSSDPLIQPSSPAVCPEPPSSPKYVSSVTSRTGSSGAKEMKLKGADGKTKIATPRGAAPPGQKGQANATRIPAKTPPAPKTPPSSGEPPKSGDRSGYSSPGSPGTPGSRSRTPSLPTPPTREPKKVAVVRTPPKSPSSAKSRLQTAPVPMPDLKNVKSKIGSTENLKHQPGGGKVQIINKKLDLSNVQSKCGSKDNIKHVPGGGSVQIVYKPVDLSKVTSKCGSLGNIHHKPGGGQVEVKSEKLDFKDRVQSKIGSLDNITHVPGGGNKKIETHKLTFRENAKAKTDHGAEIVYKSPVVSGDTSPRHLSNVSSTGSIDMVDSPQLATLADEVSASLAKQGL

“AT8 Fab (from UniProt P01857 1-103; P01834 1-107)”: the values for the Kd in assay [1] and in assay [2] were above 1000 µM and 0.021 µM, respectively.
